The target of the experiment is extracellular signal-regulated kinase (ERK1/2), endogenous in mouse spinal dorsal horn (mouse (endogenous in spinal dorsal horn)) (UniProt P63085).

One molecule from PMC6703679 can be followed below.

B1: glycine receptor α1^ins subunit, endogenous in mouse spinal dorsal horn (receptor)
chain: ARSAPKPMSPSDFLDKLMGRTSGYDARIRPNFKGPPVNVSCNIFINSFGSIAETTMDYRVNIFLRQQWNDPRLAYNEYPDDSLDLDPSMLDSIWKPDLFFANEKGAHFHEITTDNKLLRISRNGNVLYSIRITLTLACPMDLKNFPMDVQTCIMQLESFGYTMNDLIFEWQEQGAVQVADGLTLPQFILKEEKDLRYCTKHYNTGKFTCIEARFHLERQMGYYLIQMYIPSLLIVILSWISFWINMDAAPARVGLGITTVLTMTTQSSGSRASLPKVSYVKAIDIWMAVCLLFVFSALLEYAAVNFVSRQHKELLRFRRKRRHHKSPMLNLFQDDEGGEGRFNFSAYGMGPACLQAKDGISVKGANNNNTTNPPPAPSKSPEEMRKLFIQRAKKIDKISRIGFPMAFLIFNMFYWIIYKIVRREDVHNK
B1: the GlyR-IPSCs in spinal slices from formalin-injected mice, with bath application of TAT-pep-α1^ins (% of baseline) stood at 145.
